Measured values published in the domain aggregation screens of Martell et al. (2025).

Assay: soluble fraction after stress (log2 fold change); higher = more stays soluble; pooled small domains, quantitative proteomics
Conditions: stress: pH 4
Method in brief: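 How much of each domain stays soluble after acid stress, expressed as a fold change, is used to gauge aggregation propensity. Pooled custom libraries of small domains underwent pH 4 stress before high-throughput quantitative proteomics. A higher log2 value means more of the domain stayed soluble.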

Sequence | soluble fraction (log2)
HMSSKIKYSEFITMLDKGEVESVVLKSDTLTITLKHGTGVAAQTKTTTLMEDLSELTKRLEKAGIKDFDK | 0.22
HMHESLAEVAARKLRALIVTGELAPGERVTEAGLTDLLEISRTPAREAIRILSSEGLLVVFPNRGAEVV | -0.815
HMLEIRGFTVLLSDRGIVGIIEEIIQNPGQDLLRILSPEKREILVPLHSDLITGINKKKKTITMNLPDGL | -0.775
HMGMTAPIPGVVLKVSVLPGQKVERGDELLTIEAMKMFNVMRSPSSGTIATVHIKDGDRVVQGQPLVTFA | 0.113
HMANTAKVNVDTANLRETADENSKILKQLSLNDNLEVVEETGDWYKVKNSNVTGYVRKDLVTVEN | 0.244
HMPTAGYMTVTPDRVKEGQQFLATLRPPYVLKADGLAAGKGVLILPELEEAQRELEEMLGGFLGELSVNR | -0.303
HMNTELSPKVWDVVQEFILYRKEIKAPMTEHAVKLLIGQLQKLSSDPDEQIEILRQSIVNGWKGIFSLK | -0.992
HMVDDRPVTGTTLIREWQGRAYEVIVQAGHFEFQGQRYQSLSAIAKVITGTVWNGWAFFGLR | -0.444
HMVEGMQFDRGYQSPYFVTNAEKMVAELDNPYILLVEKKISSMKELLPVLEPVAQQGKSLLIISEEVEG | -0.602
HMNTPLYLKIREQIFDALRSGRWAANDPLPSETKLASEFEVSQGTIRKAIDDLVAQNILYRHQGRGTFIRR | 0.125
HMFPDLTEDEQLIVDVLQRTGDLQINSLIVEANIPVNKMSEILFELEMKGVIRTLAGGVYQLL | -1.84
HMNANTILNSQRILTQLGFNPGPIDGAFGAKTKGALNAFYTSIGKSYDGLLDSNELVELQKALDVSGLKN | -0.198
HMGITPSIEMILEYFAFKESSETEANKFFNYYSSIGWLVGGKTKMKDWKASARNWIMNQNKFQ | -1.01
HMADWTETELAALRRAYASGTTRVSYDGKSVDYGSAEDLLSRIRTLQGAASDVAADAVAAVDA | -0.153
HMADKSLLELPGLDGDKVSALVTAGVRNVNDLADLATDELVEKTGFDEKTAADLIIAARAVVY | -0.283
HMYSIDNPPDWLKNLPKGAIRIGVEVFNQVLSKADDEDRARMAAWSAIKAKYEKADDGQWQPKAA | 0.221
HMPKAMAIMSEIAGTVHIDDTKKSRHVEVTGVDDNGAPVTKSYLIPFGHRLKVMEGDVLVKGALLT | -0.0288
HMTFDWAAYEISEKEIRVMSLVAEGFSNKEIAQELFLSEGTVRNYISNILEKLGLRDRTQLAVHYLKAV | -1.52
HMEAAETAVVTGTIVNIRSGPTLDFEAFAQVKQGDRLPVLDKFYNWYYVKLPSGVNGWISGQLVRIEQ | -0.673
HMVVMEIGANGSEVVKLQKRLNQLGYYTEHASGVYDVKTASAVNEFQRQNELNATGKADYTTLDMIYNQ | -0.204
HMNIGIVSLAAVPMRKEPSDRAEMVNQILFGETFDVLEEQEKWTLVQLHHDAYQGWIDRKQWDYASGIAD | -1.3
HMKDLTIRQQQFLNYIKDHLSLTGFPPTRSDIANEMGFKSPNAAEDHLRALARKGAIEIVPGTSRGIRLP | 0.0783
HMKFIPPSLEEARAYFVEKGSSEPEAEKFVNHFDSIGWKVGRARTPMKKWKSAANNWIANNREWNQ | -0.166
HMQTTDTGAIETIVDELMAANPDKVEAYRGGKTGLQGFFMGQVMKQLGGQGNPKVISAIVTEKLE | 0.257
HMDGQGIRSITPEYYLSDSATKMPDASSSGWKSVPDDYIDKHYYWVRSKILWDDGTYTTTTPVL | -0.291

Sequence | soluble fraction (log2)
HMRPQIAIDAIQALSLIMRTENKEDPTYLESRRVVSDAVAKRLSLNPTDLNRAWSRAPRDHQIAVLSALTQ | -0.184
HMGAGDKQAQQASLMQIIALQKEGMALGLVEPKHLYHSFSKMIENAGFKDVQSFAVDPSTQQ | -0.199
HMVNSADLAAKPFIDLLVSTRQQLREAKQYDLADTIRDELTNHGITIEDKPQGSEWQYEFNPNS | -0.499
HMFEMPTSLVRTLSAIAIKQPVMQSEIIKLRGAGAYDHIKELIIRELVHRKEEGRSPILTTTKKFQEYFRL | -0.948
HMQYTQKTMYINDSYVNLRKSASTSSDIIMVVELNTKLTVIGEDGDWYKVKTSSGNAYVLKTLLSNEKKET | -0.368
HMPEGTYLEKLAIENNNLQLIGLSREASQLVQLLQDAPQWRKVNLTGVLQADGAASGRDRFTMTAELQ | 0.187
HMVSVEELLSSLDPNEATVLKLLAERSSGVDELMERSGLDFSALSEAITNLELFGYIAREMDGVYSFS | -1.78
HMSSQVFLGQKNSIAKYDLNENKPIWTKEIKGTPLILSTWKDMLLIQIQTWVSYTHMLVKQENGQTVWE | 0.282
HMAYMETIERVEALAPGTKFNLKALFGTDWTQSRGTKLTLGKTFYEMVESGYVKTAKVLGKDSSNIMQYER | -0.0837
HMRVELVVVPELRQQLLPEARELANSAGLQLRVRGQSPADETRTIVVTQSPAAGTRVAARSIVLVE | 0.338
HMTKGVKVEIGTEEASVDLYVVMEYGTPIQKAAYDAQESVRKAIETMTNLHVVRVDVHVQGVSF | ≥ 0.43
HMDYNYLVFVTNTGPRSIAVEDLEMTVSDGKLVVSSGADGETFDLSTLTKMYFSDAAVVSINDV | -1.14
HMTVPAGIVLSSIRQDGDVLHIRGTAQSTERLNFFRNSFSASWGSPAQNGKRKADPVTGLVDFTISLK | -1.16
HMTKQEYLNQLKNELVKQGVADAEDVVTEYEQHFAFKLADGFGEEEIAKKLGDPAAIASQFVG | -1.16
HMGDSFLDHKKELQSMILSRLDLSREVPDEEIKDIIDELIIAQSKKLFLSLNDRGKLRQELFYSIRK | -0.906
HMGAARVTPLYNLRLREGPSTATARLDVVPRGTTLEVRAWDETGDWAQVEYRGQIGWIAAWLAEVEGEAP | -0.739
HMYYSERILTILEERGISPYRVSKETGISQSVFSNWKRKPTSRITAANLERLADYLGLPVEVLTG | 0.134
HMSLTEDELFHALTIYANREGINIGATELKYLLTHYARNLGKLIELINQVSQAATMQKKPITIPLIKHS | -0.251
HMEAELNSLVKTYENMKPKAAAQVFEELDMDVLLDVVERMKEKKLAPILAQVTPTRAKEITYELTQRR | -0.0962
HMNDLDSLWDIWENLNERGIGDKSEEGQELRDAIREFIDTNELNVRVTRNKTNEDLLTDIEDALEVAKNS | -2.07
HMNSTVKVPNVVGMSVPQAKALLEQNHLLVQGIREVSTDKAPAGIVINQLPYSDAEVKEERHIYLTVSKGK | 0.0926
HMGAQRDFELQLIDVIRQNPGLTYKAYGEKLSVSQATVKRLVAKLKETGSIRREGSQRKGTWIITDD | 0.252
HMSEQIALQFAKAKQHHTGIALKGIEALELRYKGYTGKEIAALYHTSPKSVFSWISRAKQKLRQN | ≥ 0.43
HMTVGEKIQYYRKKIGLSQEELGQKMLLSRQTISLWEMDKTLPTVDNLLRLKEIFSVSIDELLSENEPK | -0.257
HMKFTELEQLMLKREINTLADIARVLKTTPQAVSNWKARDQIPYHIVAKINASINKDSNDSSLSI | -0.782

Sequence | soluble fraction (log2)
HMNLDPIKRKSEILSLFESHKNVKFNEIFFEKVNKEFTVLTFLIILELVKDNIIDFSQTQEGLIEFFTR | 0.204
HMKIKLQATEQQRKTLDELYVQLKKLEPTSKEDLSLLYRLENPHLVSKQEAQGLISIAIGRVGSLAIEQQ | 0.258
HMVKEVKVPDVEGLTTEEAIKELKKYGLAYTTKSEENTDIEEGKVIRTEPKKGSTKVKGSTVTIIESSG | 0.253
HMSILTELDIGDKVEVVAGPFKGIQANITRIEPVRKEVTVILLDAPYQLPVTVDADYLKIIQKS | -0.0376
HMTETNSVTINERLTLYRRSRSGRWQARVKLNTGEWHRFSTGTADFEKAKESAHRELHNVGFRAENNLPQ | -0.174
HMAPLADQIVDLLKEHDGFLPLHDNSSPEDIRATVGTSKKAFKQAIGGLFREKRIVIGPTGIRLIS | 0.146
HMELNELTSRELMVAEQVARGASNREISEALSISERTVKAHLSAAFEKLGVRDRVQLALAMNNIPT | -0.886
HMELNEIEFENLKESIIIHLEKESLSPHELVKHIQTIHPDKVTAVIQWMLENGFIKTDAGGQLTLVSK | -0.485
HMNLDELGNRIREQRIKQRLKQQDIANALMLSAQAVSKWERGENAPDISVLPDLVKILGVSVDWLLTGP | -1.15
HMEPKQIEVPNLVGISSAAARQTLSALGLHAVVKDSIWSETERIDTVLEQNPAGGALIKPEGTVYLRVSR | 0.0547
HMVPLGDLSKNERRAMELAATNGNVTTRALADDAQVTKRTASTTLRRLAKRGLLEWIGKGPSDPGQFYRIP | -0.119
HMKSILDDVVGLGPVRKKALLSAAGGFRKLRDMDVDEVIGLGAVPEEVAREVVTVLAQYNGERDRVEGL | 0.104
HMKKEQVIVPNVVGDTYDVALRKLTDAKLKVGETFPADREGHQGVIEKQSPAAGETVDEDTPVALFFKV | -0.384
HMRDYDFGNLLYKLRIESGYTQKDIADMLGVTDKAVSKWENGIAKPTTNNIKLLSTIYNVSVEELLNG | -0.754
HMETINERVNSIIEREGHTVATFAKKIGVPWTTIKNIVSGRNAPSYDIMVKIINAVDWVDANYLVMG | -1.16
HMAGGNHPTRLELLDSAAHIAERDGTSALTVDAITKSAGHAKGTFYIHFDDRADLLVEMHRR | -0.323
HMDIFLPDVKGYDLIPSFRRHLPDIDVIAMTGYNTRALESAVRQQDVLFYMIKPFEASQLKEILEHLVK | -0.279
HMGIPIEAYHESLHRHYIDLWELLDTGKETLIDAEGNEVDKIHLLNAIRFNVNGMLHELLKE | -1.48
HMTDDPGLSRAENRELQTLLLDRGHDIGQPDGLIGAKTRAAIRAEQSRLNMPVNGRGGQKLLRALRL | -0.46
HMESYDSEIKEVLDLAGKGRWEEAQTKADALREMAPNNSLVERLHGWVLQAAHQRREQALENDIRE | 0.101
HMSNEVSYSDFVRSVESDEVNAVTLDGEQIRFVGNDGQTYSVIKPADAQITQLLIDNNVTVRAEQQ | -0.0566
HMSATVLVHVLGEVRKPGVVSLPEGSRVQDAITAAGGLTSRAKPGDLNLAARVSDGAQLVIGRSGSQVRTT | 0.103
HMRIPANIAEDIKKLQKKEHHLHHHLGRDPFDDELAKELEWDTEQVSEIRQMIKNPELLEELLEAEREEE | -1.2
HMNSLQLGSRGPTVSALQAKLNTMLVPSPRLVADGSFGPKTAQAVKAFQQMKRLVADGVVGPKTAAALGLS | 0.281
HMANFGSILRNLRISRDITQSELAAKLGVSRSTVGMYETGAREPDFEAMEAIADTFNVDMDYLVGRSQ | -0.326
